T1: SYNJ2BP, P57105
T1 sequence (P57105 8-110, limits assumed, looked up): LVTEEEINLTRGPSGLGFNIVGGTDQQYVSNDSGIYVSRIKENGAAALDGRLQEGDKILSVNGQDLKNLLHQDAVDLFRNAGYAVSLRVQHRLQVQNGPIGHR

T2: APBA2_1, Q99767
T2 sequence (Q99767 563-664, limits assumed, looked up): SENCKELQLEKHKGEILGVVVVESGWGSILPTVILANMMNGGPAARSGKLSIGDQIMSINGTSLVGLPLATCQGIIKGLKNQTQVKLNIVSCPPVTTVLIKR

T3: PDZD7_3, Q9H5P4
T3 sequence (Q9H5P4 857-944, limits assumed, looked up): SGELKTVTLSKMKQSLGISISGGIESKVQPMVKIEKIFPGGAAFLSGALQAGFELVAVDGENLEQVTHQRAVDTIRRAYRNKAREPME

T4: ARHGAP21, Q5T5U3
T4 sequence (Q5T5U3 45-169, limits assumed, looked up): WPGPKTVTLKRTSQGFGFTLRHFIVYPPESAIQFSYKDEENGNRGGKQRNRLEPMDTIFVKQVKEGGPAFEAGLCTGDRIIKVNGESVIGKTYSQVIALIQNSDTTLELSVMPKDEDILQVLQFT

T5: DVL3, Q92997
T5 sequence (Q92997 244-331, limits assumed, looked up): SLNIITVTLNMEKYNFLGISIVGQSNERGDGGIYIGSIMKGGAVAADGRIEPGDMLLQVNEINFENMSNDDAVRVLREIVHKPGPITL

T6: GRIP1_5, Q9Y3R0
T6 sequence (Q9Y3R0 568-668, limits assumed, looked up): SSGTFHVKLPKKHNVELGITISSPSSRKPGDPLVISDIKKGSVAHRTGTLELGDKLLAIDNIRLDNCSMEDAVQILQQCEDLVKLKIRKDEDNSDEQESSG

T7: DLG3_1, Q92796
T7 sequence (Q92796 125-227, limits assumed, looked up): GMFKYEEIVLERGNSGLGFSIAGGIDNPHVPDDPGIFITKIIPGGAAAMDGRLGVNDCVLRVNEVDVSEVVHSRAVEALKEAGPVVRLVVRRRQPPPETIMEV

T8: FRMPD1, Q5SYB0
T8 sequence (Q5SYB0 52-145, limits assumed, looked up): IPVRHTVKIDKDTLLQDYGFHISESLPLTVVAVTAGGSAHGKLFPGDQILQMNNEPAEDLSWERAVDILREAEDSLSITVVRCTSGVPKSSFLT

T9: DLG3_2, Q92796
T9 sequence (Q92796 221-321, limits assumed, looked up): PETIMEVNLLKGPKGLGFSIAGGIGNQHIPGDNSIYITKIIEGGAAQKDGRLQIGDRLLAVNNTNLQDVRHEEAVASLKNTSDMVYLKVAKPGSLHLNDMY

T10: TJP3_3, O95049
T10 sequence (O95049 375-456, limits assumed, looked up): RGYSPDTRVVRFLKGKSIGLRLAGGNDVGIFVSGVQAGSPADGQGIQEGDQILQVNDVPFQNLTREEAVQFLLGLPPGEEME

T11: SNTB1, Q13884
T11 sequence (Q13884 107-205, limits assumed, looked up): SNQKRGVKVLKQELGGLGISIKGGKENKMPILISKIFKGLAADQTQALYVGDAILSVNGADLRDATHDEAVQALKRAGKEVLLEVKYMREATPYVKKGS

T12: SHANK1, Q9Y566
T12 sequence (Q9Y566 658-767, limits assumed, looked up): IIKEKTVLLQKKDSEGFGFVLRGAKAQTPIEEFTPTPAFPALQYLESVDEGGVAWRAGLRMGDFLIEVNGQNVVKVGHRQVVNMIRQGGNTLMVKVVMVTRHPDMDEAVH

T13: APBA3_1, O96018
T13 sequence (O96018 389-490, limits assumed, looked up): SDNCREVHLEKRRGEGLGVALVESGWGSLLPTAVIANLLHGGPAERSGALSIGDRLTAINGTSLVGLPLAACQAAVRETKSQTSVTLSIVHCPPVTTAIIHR


Each binder was assayed against T1, SYNJ2BP, P57105 (assay: holdup assay). Details: plain residues with an end cap or a label only (N-terminal biotin on a linker: ado-ado).
Parameters: key: below the threshold = too weak to quantify, mostly under pKd 3.1 to 4

pKd	Binder
below the threshold	RSPVATATSC [DUSP5, Q16690]

The binders below were run against T2, APBA2_1, Q99767 (assay: holdup assay). Details: plain residues with an end cap or a label only (N-terminal biotin on a linker: ado-ado).
Parameters: key: below the threshold = too weak to quantify, mostly under pKd 3.1 to 4

pKd	Binder
below the threshold	RSPVATATSC [DUSP5, Q16690]

The binders below were run against GRID2IP_2, A4D2P6 (assay: holdup assay). Details: plain residues with an end cap or a label only (N-terminal biotin on a linker: ado-ado).
Parameters: key: below the threshold = too weak to quantify, mostly under pKd 3.1 to 4

Chain of GRID2IP_2, A4D2P6 (A4D2P6 272-370): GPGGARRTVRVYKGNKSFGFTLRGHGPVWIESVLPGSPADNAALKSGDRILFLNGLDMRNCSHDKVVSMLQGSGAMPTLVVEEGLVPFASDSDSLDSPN

pKd	Binder
3.79	RSPVATATSC [DUSP5, Q16690]

The binders below were run against T3, PDZD7_3, Q9H5P4 (assay: holdup assay). Details: plain residues with an end cap or a label only (N-terminal biotin on a linker: ado-ado).
Parameters: key: below the threshold = too weak to quantify, mostly under pKd 3.1 to 4

pKd	Binder
3.72	RSPVATATSC [DUSP5, Q16690]

The binders below were run against T4, ARHGAP21, Q5T5U3 (assay: holdup assay). Details: plain residues with an end cap or a label only (N-terminal biotin on a linker: ado-ado).
Parameters: key: below the threshold = too weak to quantify, mostly under pKd 3.1 to 4

pKd	Binder
below the threshold	RSPVATATSC [DUSP5, Q16690]

What follows are binders tested against T5, DVL3, Q92997 (assay: holdup assay). Details: plain residues with an end cap or a label only (N-terminal biotin on a linker: ado-ado).
Parameters: key: below the threshold = too weak to quantify, mostly under pKd 3.1 to 4

pKd	Binder
below the threshold	RSPVATATSC [DUSP5, Q16690]

What follows are binders tested against PDLIM1, O00151 (assay: holdup assay). Details: plain residues with an end cap or a label only (N-terminal biotin on a linker: ado-ado).
Parameters: key: below the threshold = too weak to quantify, mostly under pKd 3.1 to 4

Chain of PDLIM1, O00151 (O00151 1-87): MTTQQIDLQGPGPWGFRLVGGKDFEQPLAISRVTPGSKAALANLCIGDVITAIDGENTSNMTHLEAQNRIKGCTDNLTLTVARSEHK

pKd	Binder
below the threshold	RSPVATATSC [DUSP5, Q16690]

What follows are binders tested against MAGI2_6, Q86UL8 (assay: holdup assay). Details: plain residues with an end cap or a label only (N-terminal biotin on a linker: ado-ado).
Parameters: key: below the threshold = too weak to quantify, mostly under pKd 3.1 to 4

Chain of MAGI2_6, Q86UL8 (Q86UL8 1141-1229): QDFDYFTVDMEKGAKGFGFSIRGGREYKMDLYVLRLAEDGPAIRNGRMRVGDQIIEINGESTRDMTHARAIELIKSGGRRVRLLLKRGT

pKd	Binder
below the threshold	RSPVATATSC [DUSP5, Q16690]

What follows are binders tested against Inadl_4, Q8NI35 (assay: holdup assay). Details: plain residues with an end cap or a label only (N-terminal biotin on a linker: ado-ado).
Parameters: key: below the threshold = too weak to quantify, mostly under pKd 3.1 to 4

Chain of Inadl_4, Q8NI35 (Q8NI35 547-651): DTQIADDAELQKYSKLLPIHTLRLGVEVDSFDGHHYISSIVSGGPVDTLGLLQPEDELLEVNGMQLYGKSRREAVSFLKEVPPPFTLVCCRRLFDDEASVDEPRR

pKd	Binder
below the threshold	RSPVATATSC [DUSP5, Q16690]

What follows are binders tested against MAGI2_5, Q86UL8 (assay: holdup assay). Details: plain residues with an end cap or a label only (N-terminal biotin on a linker: ado-ado).
Parameters: key: below the threshold = too weak to quantify, mostly under pKd 3.1 to 4

Chain of MAGI2_5, Q86UL8 (Q86UL8 915-1017): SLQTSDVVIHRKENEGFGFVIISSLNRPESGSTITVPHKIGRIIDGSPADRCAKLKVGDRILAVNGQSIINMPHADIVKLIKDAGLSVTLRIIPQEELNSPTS

pKd	Binder
below the threshold	RSPVATATSC [DUSP5, Q16690]

Each binder was assayed against T6, GRIP1_5, Q9Y3R0 (assay: holdup assay). Details: plain residues with an end cap or a label only (N-terminal biotin on a linker: ado-ado).
Parameters: key: below the threshold = too weak to quantify, mostly under pKd 3.1 to 4

pKd	Binder
below the threshold	RSPVATATSC [DUSP5, Q16690]

What follows are binders tested against GRIP2_4, Q9C0E4 (assay: holdup assay). Details: plain residues with an end cap or a label only (N-terminal biotin on a linker: ado-ado).
Parameters: key: below the threshold = too weak to quantify, mostly under pKd 3.1 to 4

Chain of GRIP2_4, Q9C0E4 (Q9C0E4 446-548): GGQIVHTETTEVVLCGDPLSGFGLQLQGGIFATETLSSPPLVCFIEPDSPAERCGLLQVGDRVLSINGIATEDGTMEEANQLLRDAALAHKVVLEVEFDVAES

pKd	Binder
below the threshold	RSPVATATSC [DUSP5, Q16690]

Each binder was assayed against HTRA1, Q92743 (assay: holdup assay). Details: plain residues with an end cap or a label only (N-terminal biotin on a linker: ado-ado).
Parameters: key: below the threshold = too weak to quantify, mostly under pKd 3.1 to 4

Chain of HTRA1, Q92743 (Q92743 360-477): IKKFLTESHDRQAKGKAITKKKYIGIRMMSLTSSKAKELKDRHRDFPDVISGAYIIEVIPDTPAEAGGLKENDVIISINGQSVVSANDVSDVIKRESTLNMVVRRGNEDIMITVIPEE

pKd	Binder
below the threshold	RSPVATATSC [DUSP5, Q16690]

The binders below were run against DLG1_2, Q12959 (assay: holdup assay). Details: plain residues with an end cap or a label only (N-terminal biotin on a linker: ado-ado).
Parameters: key: below the threshold = too weak to quantify, mostly under pKd 3.1 to 4

Chain of DLG1_2, Q12959 (Q12959 314-412): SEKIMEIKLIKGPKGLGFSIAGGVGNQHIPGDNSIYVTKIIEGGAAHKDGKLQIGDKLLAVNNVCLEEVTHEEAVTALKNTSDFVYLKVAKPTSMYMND

pKd	Binder
below the threshold	RSPVATATSC [DUSP5, Q16690]

Each binder was assayed against T7, DLG3_1, Q92796 (assay: holdup assay). Details: plain residues with an end cap or a label only (N-terminal biotin on a linker: ado-ado).
Parameters: key: below the threshold = too weak to quantify, mostly under pKd 3.1 to 4

pKd	Binder
below the threshold	RSPVATATSC [DUSP5, Q16690]

What follows are binders tested against T8, FRMPD1, Q5SYB0 (assay: holdup assay). Details: plain residues with an end cap or a label only (N-terminal biotin on a linker: ado-ado).
Parameters: key: below the threshold = too weak to quantify, mostly under pKd 3.1 to 4

pKd	Binder
below the threshold	RSPVATATSC [DUSP5, Q16690]

The binders below were run against T9, DLG3_2, Q92796 (assay: holdup assay). Details: plain residues with an end cap or a label only (N-terminal biotin on a linker: ado-ado).
Parameters: key: below the threshold = too weak to quantify, mostly under pKd 3.1 to 4

pKd	Binder
4.18	RSPVATATSC [DUSP5, Q16690]

These binders were tested against T10, TJP3_3, O95049 (assay: holdup assay). Details: plain residues with an end cap or a label only (N-terminal biotin on a linker: ado-ado).
Parameters: key: below the threshold = too weak to quantify, mostly under pKd 3.1 to 4

pKd	Binder
below the threshold	RSPVATATSC [DUSP5, Q16690]

These binders were tested against T11, SNTB1, Q13884 (assay: holdup assay). Details: plain residues with an end cap or a label only (N-terminal biotin on a linker: ado-ado).
Parameters: key: below the threshold = too weak to quantify, mostly under pKd 3.1 to 4

pKd	Binder
below the threshold	RSPVATATSC [DUSP5, Q16690]

These binders were tested against T12, SHANK1, Q9Y566 (assay: holdup assay). Details: plain residues with an end cap or a label only (N-terminal biotin on a linker: ado-ado).
Parameters: key: below the threshold = too weak to quantify, mostly under pKd 3.1 to 4

pKd	Binder
3.55	RSPVATATSC [DUSP5, Q16690]

Each binder was assayed against SCRIB_2, Q14160 (assay: holdup assay). Details: plain residues with an end cap or a label only (N-terminal biotin on a linker: ado-ado).
Parameters: key: below the threshold = too weak to quantify, mostly under pKd 3.1 to 4

Chain of SCRIB_2, Q14160 (Q14160 857-960): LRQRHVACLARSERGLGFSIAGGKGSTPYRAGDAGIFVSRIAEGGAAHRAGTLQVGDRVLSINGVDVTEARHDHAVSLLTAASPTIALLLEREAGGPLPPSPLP

pKd	Binder
below the threshold	RSPVATATSC [DUSP5, Q16690]

The binders below were run against Inadl_6, Q8NI35 (assay: holdup assay). Details: plain residues with an end cap or a label only (N-terminal biotin on a linker: ado-ado).
Parameters: key: below the threshold = too weak to quantify, mostly under pKd 3.1 to 4

Chain of Inadl_6, Q8NI35 (Q8NI35 1058-1167): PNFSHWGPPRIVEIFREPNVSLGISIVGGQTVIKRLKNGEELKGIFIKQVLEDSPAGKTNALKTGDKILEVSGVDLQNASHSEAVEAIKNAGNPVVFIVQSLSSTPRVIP

pKd	Binder
below the threshold	RSPVATATSC [DUSP5, Q16690]

These binders were tested against MAST1, Q9Y2H9 (assay: holdup assay). Details: plain residues with an end cap or a label only (N-terminal biotin on a linker: ado-ado).
Parameters: key: below the threshold = too weak to quantify, mostly under pKd 3.1 to 4

Chain of MAST1, Q9Y2H9 (Q9Y2H9 962-1065): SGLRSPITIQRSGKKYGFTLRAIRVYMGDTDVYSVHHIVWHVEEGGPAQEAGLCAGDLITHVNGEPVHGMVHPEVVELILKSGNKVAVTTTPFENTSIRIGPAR

pKd	Binder
3.81	RSPVATATSC [DUSP5, Q16690]

The binders below were run against T13, APBA3_1, O96018 (assay: holdup assay). Details: plain residues with an end cap or a label only (N-terminal biotin on a linker: ado-ado).
Parameters: key: below the threshold = too weak to quantify, mostly under pKd 3.1 to 4

pKd	Binder
below the threshold	RSPVATATSC [DUSP5, Q16690]

— article PMC9482650, “Quantitative fragmentomics allow affinity mapping of interactomes” (Nature Communications, 2022)
